Experiments:
[1] = target: BrxR (R47A) from Acinetobacter sp. NEB394 (Acinetobacter sp. NEB394); test: SEC; elution profile of purified protein on size exclusion chromatography; conditions of this run not stated
[2] = target: BrxR (untagged WT) (Acinetobacter sp. NEB394) (UniProt A0A7H8SL41); test: EMSA; details: EMSA: 20 mM Tris pH 7.9, 40 mM NaCl, 2.5% sucrose, 22 C, 30 min; 20 nM DNA (10 nM in Fig S6), 25-800 nM BrxR; 7% native gel in TBE
[3] = target: selenomethionyl (SeMet)-containing BrxR from Acinetobacter sp. NEB394 (Acinetobacter sp. NEB394); test: crystal structure; apo BrxR, SeMet-derivatized protein, SAD phasing, 2.3 Å; crystals from 10% PEG3000, 0.1 M HEPES pH 7.3, 2% benzamidine-HCl
[4] = target: BrxR ('BREX Regulator') from Acinetobacter sp. NEB394, untagged (Acinetobacter sp. NEB394); test: SEC; elution profile of purified protein on size exclusion chromatography; conditions of this run not stated
[5] = target: BrxR ('BREX Regulator') from Acinetobacter sp. NEB394, untagged (Acinetobacter sp. NEB394); test: crystal structure; BrxR (125 uM) co-crystallized with 25 bp dsDNA target (150 uM), 2.3 Å, molecular replacement; 0.04 M citric acid, 20% PEG 3350, 60 mM Bis-Tris propane pH 6.4

With “BrxR (R47A) from Acinetobacter sp. NEB394 (natural protein)” the stoichiometry N [1] was 2.
“GCGGAGTCCATCCAAACATCGGGAGATTTTGATCAGATATGTTTAACCTGCCCTCACAATACCGTAAAAATAATTTACTGTATATTCATTGTAGGGTAGTCTTGATCACATTGTTTATTGACCGATTGTTCTATGACAGCAGACAAGCATGAAGTGCTTCTCAGAATGAGGGCGATTGAGTTACTGGCCTACTGGGAAGGGCGTTTG (double strand) [BREX upstream region -109/+98 (~200 bp)]” gave a Kd [2] of 100 nM.
For “selenomethionyl (SeMet)-containing BrxR from Acinetobacter sp. NEB394 (natural protein)”, the stoichiometry N [3] was 2.
In the case of “BrxR ('BREX Regulator') from Acinetobacter sp. NEB394, untagged (natural protein)”, the stoichiometry N [4] is reported as 2 and the stoichiometry N [5] is reported as 2.

From article PMC9122589
